Experimental data as given in the supplement of paper PMC12067230.
± gives the uncertainty stated by the source.

Experiment: amyloid nucleation score relative to WT ADan (yeast Sup35 reporter selection) (log enrichment difference); higher = more amyloid nucleation
Experimental: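 Deep mutational scan of the ADan peptide fused to the Sup35 nucleation domain (SupN) in S. cerevisiae [psi-pin-], covering all single amino-acid substitutions and stop truncations (truncations = sequence up to the stop). After 24 h Cu2+ induction, cells were selected on -ADE-URA plates for 7 d at 30 °C. The nucleation score is log enrichment (output/input, deep sequencing) minus that of WT ADan, as the error-weighted mean of 3 biological replicates (DiMSum).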

| Substance | amyloid nucleation score |
| --- | --- |
| EASNCFAIRHFENK [F-15-*] | -4.43 ± 0.56 |
| EASN [C-5-*] | -4.07 ± 0.81 |
| EAS [N-4-*] | -2.54 ± 0.48 |
| EASNCFAIRHFE [N-13-*] | -5.86 ± 0.85 |
| EASNCFAI [R-9-*] | -3.67 ± 0.55 |
| EASNC [F-6-*] | -3.12 ± 0.32 |
| EASNCF [A-7-*] | -4.37 ± 0.56 |
| EASNCFAIRHF [E-12-*] | -3.42 ± 0.34 |
| EASNCFAIRHFENKF [A-16-*] | -4.34 ± 0.67 |
| EASNCFAIRHFENKFAVET [L-20-*] | -4.16 ± 0.68 |
| EASNCFAIRH [F-11-*] | -3.45 ± 0.39 |
| EASNCFAIRHFEN [K-14-*] | -4.92 ± 0.57 |
| EASNCFAIRHFENKFA [V-17-*] | -5.63 ± 1.4 |
| EASNCFAIR [H-10-*] | -4.06 ± 0.6 |
| EASNCFAIRHFENKFAV [E-18-*] | -3.23 ± 0.49 |
| EASNCFA [I-8-*] | -3.92 ± 0.58 |
| EASNCFAIRHFENKFAVE [T-19-*] | -3.43 ± 0.55 |
